72 sequences from the supplement of paper PMC10567573 can be followed below.

± gives the standard deviation.

This data set can be described thus: protein stability index of a GFP-peptide fusion (GPS, HEK-293T) (PSI 1-6); higher = more stable. The conditions noted are these: c terminus: a fixed tail appended.
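Also: 24-mer peptide tiles fused after GFP, lentivirally expressed, FACS-sorted into six equal bins by GFP/DsRed ratio, decoded by Illumina sequencing, PSI is the read-weighted mean bin number.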

SVGDPCGGAICGGPDHRLRLWRLF [SLC25A25] returned a protein stability index (treatment: DMSO) of 2.35 ± 0.59 and a protein stability index (treatment: MLN4924 1 uM, 8 h) of 2.62 ± 0.21.
Taken in the same sequence, the figures for SVPFSFDPNTAAGWLSVSDDLTSV [TRIM35] were 3.42 ± 0.25 and 3.52 ± 0.23.
Taken in the same sequence, the figures for SVVTEDGPEPKDKGSLPQPPITEV [ZNF232] were 5.5 ± 0.2 and 5.48 ± 0.18.
Taken in the same sequence, the figures for SVVTTARMQVLKRQVQSLMVHQRK [SMARCE1] were 2.79 ± 0.14 and 2.94 ± 0.27.
Take SWARPRPDEERPLRRPRPVQRTQS [RASAL3]: the protein stability index by setting is: (treatment: DMSO) 4.46 ± 0.36; (treatment: MLN4924 1 uM, 8 h) 4.57 ± 0.26.
As for SYSTSEQAELSYKKVSEGPPLRLW [DLC1], the protein stability index is, setting by setting: (treatment: DMSO) 2.73 ± 0.36; (treatment: MLN4924 1 uM, 8 h) 3.26 ± 0.18.
The corresponding values for TADRIIRVYDGREILTCGRDGEPE [RBBP5] are 4.55 ± 0.12 and 4.49 ± 0.31.
With TAVAQAPPAVASSSLFDLSVLKLH [SERTAD1], the protein stability index is, setting by setting: (treatment: DMSO) 3.17 ± 0.061; (treatment: MLN4924 1 uM, 8 h) 3.24 ± 0.2.
With TCTWKLPTLAKFSPYLGQMINLRR [PRAME], the protein stability index reads like this: (treatment: DMSO) 2.28 ± 0.27; (treatment: MLN4924 1 uM, 8 h) 1.89 ± 0.3.
Taken in the same sequence, the figures for TDNQVRLRKRKEIREDRDRARLDS [DLC1] were 5.18 ± 0.39 and 5.07 ± 0.3.
Take TDQLEFTVEPRLLVADLLYWKDTR [RTN2]: the protein stability index is 2.43 ± 0.23 (treatment: DMSO) and 2.54 ± 0.33 (treatment: MLN4924 1 uM, 8 h).
With TEEVKFYQLGEEALLKFREDEGFV [KCNA4], the protein stability index is 4.16 ± 0.3 (treatment: DMSO) and 4.3 ± 0.24 (treatment: MLN4924 1 uM, 8 h).
Taken in the same sequence, the figures for TERSPGPRLQELLGPSPQRDPQAV [ZNF263] were 4.79 ± 0.2 and 4.91 ± 0.35.
Taken in the same sequence, the figures for TESSNTTIEDEDVKARKQEIIKVT [CAMK2D] were 5.21 ± 0.29 and 5.07 ± 0.25.
Taken in the same sequence, the figures for TFDTGCLTLSQYILLDPILMFFIM [POMT2] were 2.35 ± 0.52 and 2.33 ± 0.36.
As to TFFCPNDTYNDMATLFFNPQESAI [CLCN6], the protein stability index was 2.23 ± 0.32 (treatment: DMSO) and 2.26 ± 0.22 (treatment: MLN4924 1 uM, 8 h).
Taken in the same sequence, the figures for TGFPQYAQLYEDFLFPIDISLVKR [DLC1] were 2.37 ± 0.24 and 2.35 ± 0.54.
The corresponding values for TGIEYIVAQGPTNQGLNVMVWNQN [ADAMTSL2] are 2.175 ± 0.019 and 2.1 ± 0.24.
The corresponding values for TGIVNHTHSRMGSIMSTGIVQGSS [CARM1] are 3.12 ± 0.2 and 3.5 ± 0.63.
On to TGNVCIEEIDVDGKFIRLKNTSEQ [LMNB1], for which the protein stability index is, setting by setting: (treatment: DMSO) 4.76 ± 0.29; (treatment: MLN4924 1 uM, 8 h) 4.76 ± 0.15.
Taken in the same sequence, the figures for TGTSKRYQLCRVQECPPDGRSFRE [ADAMTSL2] were 2.58 ± 0.71 and 3.09 ± 0.62.
Taken in the same sequence, the figures for THIMKGEDDALSDKHGCPAYVSPE [TRIB1] were 5.12 ± 0.14 and 4.91 ± 0.22.
The corresponding values for TIAQSLEHSWIKAIRRRNVRGEDS [DAPK3] are 3.64 ± 0.41 and 3.4 ± 0.15.
Regarding TIDMGPQLKVVERTRTATMLCAAS [PTPRD], the protein stability index reads like this: (treatment: DMSO) 3.18 ± 0.23; (treatment: MLN4924 1 uM, 8 h) 3.49 ± 0.21.
The corresponding values for TIVTDVFQGSMRIFTKKLPHPDLP [USP39] are 2.31 ± 0.099 and 2.38 ± 0.29.
The corresponding values for TKKKKKTIVTDVFQGSMRIFTKKL [USP39] are 2.49 ± 0.26 and 2.83 ± 0.11.
Turning to TKKRKTFDSSRQRAEGTDIPTVKP [ZC2HC1A], the protein stability index was determined as 4.86 ± 0.22 (treatment: DMSO) and 4.79 ± 0.2 (treatment: MLN4924 1 uM, 8 h).
In the case of TLEALGYKGPLLEEQALTKAAEGG [FAM98B], the protein stability index is 4.61 ± 0.23 (treatment: DMSO) and 4.66 ± 0.083 (treatment: MLN4924 1 uM, 8 h).
Taken in the same sequence, the figures for TLKEAYVQKLVKVCTDTDRWSLIS [TENT5C] were 2.58 ± 0.4 and 2.4 ± 0.41.
Taken in the same sequence, the figures for TLMTMAIRIIDRALKEDFGFKHRL [PRIM1] were 2.99 ± 0.62 and 2.9 ± 0.54.
Taken in the same sequence, the figures for TLSAELVPWLNLKKQDENEGIKVE [CEP70] were 4.33 ± 0.057 and 4.22 ± 0.098.
Turning to TMEYSMVGRTVLDMLIREVVEKRL [RSPH3], the protein stability index by setting is: (treatment: DMSO) 2.68 ± 0.54; (treatment: MLN4924 1 uM, 8 h) 2.64 ± 0.3.
The corresponding values for TNCQKVLNMWCCCFFKRRKRKTIQ [CSNK1G3] are 4.01 ± 0.26 and 3.77 ± 0.21.
Turning to TPLPETGYWRVRLWNGDKYAATTT [TRIM39], the protein stability index worked out at 2.47 ± 0.34 (treatment: DMSO) and 2.37 ± 0.2 (treatment: MLN4924 1 uM, 8 h).
Taken in the same sequence, the figures for TQEFLSACKSLQTRQNGIQTNKPA [STX5] were 4.18 ± 0.21 and 4.14 ± 0.23.
Taken in the same sequence, the figures for TQEGAKDLEVDMNKTEVTPRLWTT [ACSBG2] were 3.55 ± 0.62 and 4.03 ± 0.68.
On to TQNHAASALPTGSPKRGTAPGDLS [FBF1], for which the protein stability index was determined as 5.08 ± 0.18 (treatment: DMSO) and 5.13 ± 0.21 (treatment: MLN4924 1 uM, 8 h).
The corresponding values for TQTWCTQSWNNQAWNSPFYNCGEE [NANOGP8] are 3.07 ± 0.25 and 3.2 ± 0.12.
Turning to TREWTQLKPNNLSCDLPEERYRHE [KLHDC10], the protein stability index runs as follows: (treatment: DMSO) 4.61 ± 0.3; (treatment: MLN4924 1 uM, 8 h) 4.71 ± 0.13.
On to TRRLRLAHVGMELQLKQELAMLNA [SCARA5], for which the protein stability index is, setting by setting: (treatment: DMSO) 2.65 ± 0.23; (treatment: MLN4924 1 uM, 8 h) 2.55 ± 0.22.
The corresponding values for TRWYRAPELLVGDTQYGSSVDIWA [CDKL4] are 1.97 ± 0.59 and 2.26 ± 0.39.
The corresponding values for TSDVYSSDAAFGGILERYWLSSRA [MYORG] are 2.62 ± 0.11 and 2.47 ± 0.092.
On to TSSVSCALDEAAAALTRMRAESTA [ANKRD17], for which the protein stability index is, setting by setting: (treatment: DMSO) 3.06 ± 0.42; (treatment: MLN4924 1 uM, 8 h) 3.05 ± 0.32.
The corresponding values for TTENENTKFEVRLLRDPADASEAH [CHGB] are 5.18 ± 0.21 and 5.24 ± 0.14.
Taken in the same sequence, the figures for TWAPKNKGGEERKAEGGEEDSLGC [IRX6] were 5.5 ± 0.16 and 5.42 ± 0.18.
Turning to TWLPSRAEWLLAVRSIQPEEKERI [AASDHPPT], the protein stability index worked out at 3.3 ± 0.31 (treatment: DMSO) and 3.29 ± 0.2 (treatment: MLN4924 1 uM, 8 h).
Taken in the same sequence, the figures for TWMFFFMMCVAERTYKQRFLFAKL [PHTF1] were 2.83 ± 0.22 and 2.92 ± 0.36.
Taken in the same sequence, the figures for TYEEAAAYIQCQFEDLNKRKDTKE [GNAI1] were 4.61 ± 0.15 and 4.67 ± 0.12.
The corresponding values for VAHVESLQEKSQCALEEYVRSQYP [NR2F2] are 3.6 ± 0.28 and 3.96 ± 0.25.
Take VAQGPTNQGLNVMVWNQNGKSPSI [ADAMTSL2]: the protein stability index is 3.11 ± 0.4 (treatment: DMSO) and 3.62 ± 0.23 (treatment: MLN4924 1 uM, 8 h).
Taken in the same sequence, the figures for VAWCYYSVSLRKAERLRAELLDLK [MYORG] were 2.35 ± 0.42 and 2.15 ± 0.47.
The corresponding values for VCTVQFLISKGANVNRTTANNDHT [ANKRD17] are 2.28 ± 0.24 and 2.46 ± 0.4.
The corresponding values for VDCACLKENPECPVLKRSSESMEN [KMT2E] are 4.96 ± 0.37 and 4.98 ± 0.19.
Turning to VDFQCVKSKSITNLAAAAADIPQD [BTBD10], the protein stability index came to 4.79 ± 0.28 (treatment: DMSO) and 4.8 ± 0.11 (treatment: MLN4924 1 uM, 8 h).
The corresponding values for VDFTFVENVVHGHILAAEQLSRDS [NSDHL] are 2.37 ± 0.36 and 2.26 ± 0.4.
Taken in the same sequence, the figures for VDGDQSKILISGLEPSTPYRFLLY [TNXB] were 2.41 ± 0.45 and 2.21 ± 0.48.
The corresponding values for VDLELFPSPDMECADVPLLTPSSK [ETS1] are 4.07 ± 0.24 and 4.05 ± 0.2.
As to VDLVDESGYVSGYKHAGTYDQKVQ [TPPP], the protein stability index came out at 4.04 ± 0.32 (treatment: DMSO) and 4.01 ± 0.17 (treatment: MLN4924 1 uM, 8 h).
Taken in the same sequence, the figures for VDPIGHLYIFATCLGLSYDGLLGD [MAGEA3] were 3.06 ± 0.37 and 3.21 ± 0.34.
The corresponding values for VDSAEYSCLKAIVLFTSDACGLSD [NR2F2] are 2.23 ± 0.38 and 2.25 ± 0.31.
The corresponding values for VDTLNVKDIAPEKQLLNSAVIAQQ [DLC1] are 4.53 ± 0.36 and 4.55 ± 0.24.
As to VEGKCLQSGFEMLKDVKSTLEKCE [TRIM39], the protein stability index (treatment: DMSO) amounted to 4.31 ± 0.21 and the protein stability index (treatment: MLN4924 1 uM, 8 h) came out at 4.41 ± 0.19.
Take VGAAGSARQELLGDRPRWQRLLGE [ANKRD9]: the protein stability index stood at 3.54 ± 0.27 (treatment: DMSO) and 3.31 ± 0.15 (treatment: MLN4924 1 uM, 8 h).
The corresponding values for VGLGTCSMFSRVGGIIAPFIPSLK [SLC22A15] are 2.1 ± 0.36 and 2.33 ± 0.45.
The corresponding values for VGTAAVNMCLVATGGADAYYEMGI [IMPA1] are 2.71 ± 0.045 and 2.73 ± 1.1.
The corresponding values for VISQLEQGTELWVAERGTTQGCHP [ZNF8] are 3.96 ± 0.29 and 3.99 ± 0.45.
In the case of VLCGVVMDRSLVQDAPLSDCTETI [ADD1], the protein stability index runs as follows: (treatment: DMSO) 3.11 ± 0.27; (treatment: MLN4924 1 uM, 8 h) 2.99 ± 0.41.
Taken in the same sequence, the figures for VLETKWELLQQLDLNNCKNNLEPI [KRT71] were 3.2 ± 0.17 and 3.17 ± 0.29.
The corresponding values for VLLIKDRTSKSRGFAFITFENPAD [RBMY1A1] are 2.83 ± 0.88 and 3.06 ± 1.5.
For the sequence VLMWTMLFLGQGIQVSLYCQEWYA [SOAT2], the protein stability index reads like this: (treatment: DMSO) 2.87 ± 0.36; (treatment: MLN4924 1 uM, 8 h) 3.3 ± 0.6.
The corresponding values for VLPEDRILREELQKQRLREILEQQ [ZNF277] are 4.63 ± 0.4 and 4.21 ± 0.41.
In the case of VLQHVRLPLLSPKFLVGTVGSDPL [KLHL20], the protein stability index reads like this: (treatment: DMSO) 2.22 ± 0.28; (treatment: MLN4924 1 uM, 8 h) 2.13 ± 0.1.
